Measured values taken from PMC2195798 (The Journal of Experimental Medicine, 2000).
Where two headings read alike, the source gives them in different places.

B1: MC148 CC chemokine from molluscum contagiosum virus (MCV), processed secreted protein (ligand, molluscum contagiosum virus subtype 1, UniProt Q98314 1-104, looked up)
chain: LARRKCCLNPTNRPIPNPLLQDLSRVDYQAIGHDCGREAFRVTLQDGRQGCVSVGNKSLLDWLRGHKDLCPQIWSGCESL
B2: I-309 (ligand, human, UniProt P22362 24-96, looked up)
chain: KSMQVPFSRCCFSFAEQEIPLRAILCYRNTSSICSNEGLIFKLKRGKEACALDTVGWVQRHRKMLRHCPSKRK
B3: viral macrophage inflammatory protein (vMIP)-II encoded by human herpesvirus 8 (HHV8) (ligand, UniProt Q98157 21-94, looked up)
chain: GDTLGASWHRPDKCCLGYQKRPLPQVLLSSWYPTSQLCSKPGVIFLTKRGRQVCADKSKDWVKKLMQQLPVTAR

Key:
[1] = biological target: T1, CC chemokine receptor 8 (CCR8) (human, UniProt P51685 1-355); assay: radioligand binding
T1 sequence (P51685 whole entry): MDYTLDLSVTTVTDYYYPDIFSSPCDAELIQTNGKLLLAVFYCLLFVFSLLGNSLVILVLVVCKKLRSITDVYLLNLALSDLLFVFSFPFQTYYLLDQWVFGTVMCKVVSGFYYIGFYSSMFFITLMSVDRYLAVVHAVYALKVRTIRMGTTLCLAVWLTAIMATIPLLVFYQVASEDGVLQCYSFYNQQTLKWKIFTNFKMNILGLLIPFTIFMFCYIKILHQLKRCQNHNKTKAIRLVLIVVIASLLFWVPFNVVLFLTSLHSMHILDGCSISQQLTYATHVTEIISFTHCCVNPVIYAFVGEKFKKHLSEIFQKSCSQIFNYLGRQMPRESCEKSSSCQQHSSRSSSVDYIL

[2] = biological target: T1, CC chemokine receptor 8 (CCR8); assay: radioligand binding; remark: listed apart in the source

Row | Binder | IC50 [1] [nM] | IC50 [2] [nM]
1 | B1 | 0.47 | 0.27
2 | B2 | 0.52 | –
3 | B3 | 27.8 | –
